Target: the molecule itself
Experiment: AUC; sedimentation velocity, 50,000 rpm, 20°C, absorbance at 230 nm; 10 mM sodium bicarbonate, 5 mM sodium phosphate (pH 6.8), 100 mM NaCl; with 20 mM DPC detergent (membrane mimic); c(s) distribution in SEDFIT

B1: Intestinalin (P30) (peptide)
peptide: KNLLRRIRRKLRNKFSRSDVIKTPKIVEVN
notes: N-terminal region of the LysC autolysin of Clostridium intestinale URNW
stoichiometry N: 3
